Assay results as given in PMC8630535.

Assays:
Details in all cases: […]) or PBS pH 8.0, 1 mM TCEP ([…]
[1] = tested on: T1, PaaR2 (Escherichia coli O157:H7 EDL933 (CP-933P cryptic prophage)), ORF:dc76e4f2; test: EMSA
T1 sequence: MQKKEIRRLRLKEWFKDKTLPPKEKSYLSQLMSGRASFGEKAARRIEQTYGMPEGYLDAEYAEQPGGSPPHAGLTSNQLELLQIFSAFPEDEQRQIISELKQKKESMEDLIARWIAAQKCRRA

[2] = tested on: T2, YdaS (Escherichia coli O157:H7 EDL933 (CP-933P cryptic prophage)), ORF:56fdd3d8; test: EMSA
T2 sequence: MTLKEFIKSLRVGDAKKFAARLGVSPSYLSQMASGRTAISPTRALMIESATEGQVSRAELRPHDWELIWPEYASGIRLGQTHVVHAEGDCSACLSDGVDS

[3] = tested on: PaaR2 (Escherichia coli O157:H7 EDL933 (CP-933P cryptic prophage)); test: EMSA
[4] = tested on: YdaS (Escherichia coli O157:H7 EDL933 (CP-933P cryptic prophage)); test: EMSA
[5] = tested on: T1, PaaR2 (Escherichia coli O157:H7 EDL933 (CP-933P cryptic prophage)), ORF:dc76e4f2; test: DNase I footprinting
[6] = tested on: T2, YdaS (Escherichia coli O157:H7 EDL933 (CP-933P cryptic prophage)), ORF:56fdd3d8; test: DNase I footprinting

| Substance | binding [1] | binding [2] | also measured |
| --- | --- | --- | --- |
| ACCTTCCTCGGTTTAGTGTTTTTTTGCGAGTTTAGTGTTTAATAAACCATTAAGTCAAGTATTTGCTTGTTTAGTGATTACTAAAGATAATTACCAC (double strand) | > 1 µM | > 1 µM | – |
| full-length promoter/operator region, paaR2-ydaS intergenic region (EMSA) | – | – | binding [3]: > 1 µM; binding [4]: > 1 µM |
| TCTTTAAACCACTCCTTGAGACGTAAACGGCGAATTTCTTTTTTTTGCATGTGGTAATTATCTTTAGTAATCACTAAACAAGCAAATACTTGACTTAATGGTTTATTAAACACTAAACTCGCAAAAAAACACTAAACCGAGGAAGGTATGACATTAAAAGAGTTTATTAAATCATTAAGGGTTGGTGAT (double strand) [footprint fragment, paaR2-ydaS promoter/operator region] | – | – | binding [5]: binds; binding [6]: binds |
| GCTTTTGCGCAGAAATTTCGCGATATGGCAGGACAAGACGTAAAATTGACAGCAATTTTATTCATATAAAGAATGAATCGCAGTCAAGGTATTCATC (double strand) [random intergenic region (Neg)] | no binding | no binding | – |
